Test results as given in paper PMC8376246, “Analysis of the mechanosensor channel functionality of TACAN” (eLife, 2021).

Biological target: the molecule itself
Assay: cryo-EM structure; single-particle cryo-EM; purified protein at 6–7 mg/mL in digitonin, mixed with 2.9 mM FFC8; refined with C2 symmetry

Protein | stoichiometry N | binding result
Mus musculus full-length TMEM120A (TACAN, residues 1–343), wild type (natural protein, UniProt Q8C1E7 1-343, looked up, TMEM120A (TACAN), Mus musculus, full length, residues 1-343; the model of the structure holds residues 9-72, 76-250 and 262-335; A PreScission protease site lies between TACAN and the C-terminal eGFP; residues of the cut site probably stay on the C-terminus (surmised; expected monomer mass printed as 41,770 Da); Synthetic gene (GeneWiz); also called TACAN^WT; M. musculus TACAN; source: HEK293S …) MQSPPPDPLGDCLRNWEDLQQDFQGIQETHRLYRLKLEELTKLQANCTNSITRQKKRLQELALVLKKCRPSLPSESMEAAQELENQMKERQGLFFDMEAYLPKKNGLYLSLVLGNVNVTLLSKQAKFAYKDEYEKFKLYLTIILIVISFTCRFLLNSRVTDAAFNFLLVWYYCTLTIRESILINNGSRIKGWWVFHHYVSTFLSGVMLTWPDGLMYQKFRNQFLSFSMYQSFVQFLQYYYQSGCLYRLRALGERHTMDLTVEGFQSWMWRGLTFLLPFLFFGHFWQLFNALTLFNLARDPECKEWQVLMCGFPFLLLFLGNFFTTLRVVHQKFHSQQHGNKKD | 2 | 
Mus musculus TACAN (TMEM120A) His196Ala, His197Ala mutant (natural protein, UniProt Q8C1E7 1-343, looked up, TMEM120A (TACAN), Mus musculus, full length, residues 1-343, with H196A and H197A; the model of the structure holds residues 9-72, 76-250 and 262-335; Same construct as m1 with the two mutations; co-purified with coenzyme A (small molecule); Expected monomer mass printed as 41,637 Da; also called TACAN^(H196A H197A); His196Ala His197Ala mutant TACAN; source: HEK293S GnTI- cells, BacMam …) MQSPPPDPLGDCLRNWEDLQQDFQGIQETHRLYRLKLEELTKLQANCTNSITRQKKRLQELALVLKKCRPSLPSESMEAAQELENQMKERQGLFFDMEAYLPKKNGLYLSLVLGNVNVTLLSKQAKFAYKDEYEKFKLYLTIILIVISFTCRFLLNSRVTDAAFNFLLVWYYCTLTIRESILINNGSRIKGWWVFAAYVSTFLSGVMLTWPDGLMYQKFRNQFLSFSMYQSFVQFLQYYYQSGCLYRLRALGERHTMDLTVEGFQSWMWRGLTFLLPFLFFGHFWQLFNALTLFNLARDPECKEWQVLMCGFPFLLLFLGNFFTTLRVVHQKFHSQQHGNKKD |  | binds
